Patent publication US11091512B2, “Modulation of antigen immunogenicity by deleting epitopes recognized by NKT cells” (Imnate Sarl, priority 2010, dated 2021)

Tested on: CD4+ T cells and NKT cells
Test: peripheral blood CD4+ T cells cultured with human dendritic cells loaded with natural or mutated antibody
Format: cell-based
Conditions: 5 to 7 days culture
Text: Monoclonal human antibodies of the IgG4 isotype were derived from the peripheral blood B lymphocytes by transformation with the Epstein-Barr virus. The genomic sequence of such antibodies was obtained from transformed B cells. A viral vector containing the corresponding cDNA sequence was constructed and used for transfection of CHO cells. All these methods are known in the art (see for instance, Jacquemin et al Blood 92: 496-506, 1998).
The hydrophobic aminoacid residues located in position 1 in the peptides of SEQ ID18 and SEQ ID20 were mutated to a serine and the mutated antibody produced by transfected CHO cells.
Peripheral blood CD4+ T cells obtained as above were exposed in culture medium to human dendritic cells (derived from human peripheral blood monocytes by methods known in the art) and loaded with either the antibody in natural configuration (SEQ ID21) or its mutated counterpart (SEQ ID22). After culturing the cells with CD4+ T cells for 5 to 7 days, the population of CD4+ T cells activated by either natural or mutated antibody was evaluated. CD4+ NKT cells were separated from CD4+ T cells using an antibody to NKG2D, a surface marker associated with NK or NKT cells only.

B1: SEQ ID22: mutated counterpart of the IgG4 antibody, position 1 residues of SEQ ID18 and SEQ ID20 motifs mutated to serine (protein, listed as Homo sapiens)
chain: ASTKGPSVFPLAPCSRSTSESTAALGCLVKDYFPEPVTVSWNSGALTSGVHTFPAVLQSSGLYSLSSVVTVPSSSLGTKTYTCNVDHKPSNTKVDKRVESKYGPPCPSCPAPEFLGGPSVFLFPPKPKDTLMISRTPEVTCVVVDVSQEDPEVQFNWYVDGVEVHNAKTKPREEQFNSTSRVVSVLTVLHQDWLNGKEYKCKVSNKGLPSSIEKTISKAKGQPREPQVYTLPPSQEEMTKNQVSLTCLVKGFYPSDIAVEWESNGQPENNYKTTPPVLDSDGSFFLYSRLTVDKSRWQEGNVFSCSVMSEALHNHYTQKSLSLSLGK
**Q.** With B1 as the molecule, how does the “activation of class II restricted CD4+ T cells” value read?
**A.** The value was “only activate class II restricted CD4+ T cells”.

**Q.** What about the “activation of NKT cells” value (NKT cells separated with antibody to NKG2D) of the same molecule?
**A.** The value was “not NKT cells”.
